Measurements: PMC12722041, “The low complexity linker of DNAJB6b is key to its anti-amyloid function” (QRB Discovery, 2025)

Target: the molecule itself
Assay: dynamic light scattering; fresh linker sample after dialysis from 4 M urea into 20 mM sodium phosphate, 0.2 mM EDTA, pH 8.0; 25 μM stock

B1: DNAJB6b (76–186), the 110-residue low complexity linker of DNAJB6b (domain or fragment, UniProt O75190-2 76-186, looked up)
chain: GGGGGSHFDSPFEFGFTFRNPDDVFREFFGGRDPFSFDFFEDPFEDFFGNRRGPRGSRSRGTGSFFSAFSGFPSFGSGFSSFDTGFTSFGSLGHGGLTSFSSTSFGGSGMG
notes: also called JB6 linker; linker peptide
B1: binds.
